The source of these data is patent US20120020988A1 (Hoffmann-La Roche, published 2012).

Numbering of substitutions follows the chain as printed. Names and notes keep the numbering of the source.

B1: TSLPR-012_141, CDR grafted (antibody, V domains shown)
VH: QVQLVESGGGLVKPGGSLRLSCAASGFSITTSGYYWTWIRQFPGKGLEWMGYIGYNSKTYYNPALKSRITISRDNAKNSLYLQMNSLRAEDTAVYYCARSLYGGYKDAFDSWGQGTLVTVSS
VL: DIQMTQSPSSLSASVGDRVTITCRASQSIGTSLHWYQQKPGKAPKLLIKFASRLQSGVPSRFSGSGSGTDFTLTISSLQPEDFATYYCQQSPGFPPTFGQGTKLEIKR
notes: Humanized (CDR grafted) variant of hamster TSLPR-012; human kappa and human IgG1 or IgG4(S228P,L235E) appear only as embodiments
B2: TSLPR-012 (hamster) (antibody, V domains shown)
VH: QIQLQESGPGLVKPSQSLSLTCSVTGFSITTSGYYWTWIRQFPGKKLEWMGYIGYNSKTYYNPSLKSRISITRDTSKNQFLLHLNSVTTEDTATYYCARSLYGGYKDAFDSWGQGTLVTVSS
VL: DVVLTQTPATLSAIPGERVTMTCKASQSIGTSLHWYQHRPNETPRLLIKFASRSITGIPSRFSGSGSGTDFTLGINNLEAEDFAIYYCQQSPGFPPTFGSGTKLEINR
notes: Parent Armenian hamster monoclonal antibody; the hamster constant regions are not; also called TSLP-012; hamster antibody TSLPR-012
B3: TSLPR-012_166, CDR grafted (antibody, V domains shown)
VH: QVQLQESGPGLVKPSQTLSLTCTVSGFSITTSGYYWSWIRQHPGKGLEWIGYIGYNSKTYYSPSLKSRVTISRDTSKNQFSLKLSSVTAADTAVYYCARSLYGGYKDAFDSWGQGTLVTVSS
VL: B1 VL with Q38H, K39R, K42E, A43T, L54S, Q55I
notes: as for B1
B4: TSLPR-012_189, CDR grafted (antibody, V domains shown)
VH: B1 VH
VL: EIVMTQSPATLSVSPGERATLSCRASQSIGTSLHWYQQKPGQAPRLLIKFASRSITGIPARFSGSGSGTEFTLTISSLQSEDFAVYYCQQSPGFPPTFGQGTKLEIKR
notes: as for B1
B5: TSLPR-012_75, CDR grafted (antibody, V domains shown)
VH: B1 VH
VL: EIVLTQSPDFQSVTPKEKVTITCRASQSIGTSLHWYQQKPDQSPKLLIKFASRSISGVPSRFSGSGSGTDFTLTINSLEAEDAATYYCQQSPGFPPTFGQGTKLEIKR
notes: as for B1
B6: 1D6.C9 (WO2007/112146) (antibody, from another filing, V domains shown)
VH: QIQLGQSGPELKKPGETVKISCKASGYTFTTYGMSWVKQAPGKGLQWMGWINTYSGVPRYADDFKGRFAFSLETSASTAYLQIYNLKNEDTATYFCTREGFITTVVGAAGRFVYWGQGTLVTVSA
VL: DIVMTQSHKFMSTSVGDRVSITCKASQDVGTAVAWYQQKPGQSPKLLIYWASTRHTGVPDRFTGSGSGTDFTLTLNNVQSEDLADYFCQQYSTYPTFGSGTKLELKR

For one test, the target named is T1, human TSLPR (on cells) (human, UniProt Q9HC73 23-371).
T1 sequence: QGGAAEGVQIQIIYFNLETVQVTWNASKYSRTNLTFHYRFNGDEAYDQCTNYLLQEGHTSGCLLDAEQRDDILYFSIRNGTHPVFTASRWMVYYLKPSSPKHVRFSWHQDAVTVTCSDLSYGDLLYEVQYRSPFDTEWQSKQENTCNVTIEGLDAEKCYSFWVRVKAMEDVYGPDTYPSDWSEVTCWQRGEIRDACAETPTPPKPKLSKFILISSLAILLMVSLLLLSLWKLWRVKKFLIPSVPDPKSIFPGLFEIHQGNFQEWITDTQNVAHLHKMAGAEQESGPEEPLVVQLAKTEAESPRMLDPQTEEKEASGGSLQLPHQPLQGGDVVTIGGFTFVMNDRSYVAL
Put plainly: cell-based or functional assay.
Consider B1, for which the “IC50, IL-5 release in Th2 polarization assay” value was 1.62 nM; the “IC50, IL-13 release in Th2 polarization assay” value is 2.57 nM; the “IC50, TARC secretion by human dendritic cells stimulated with TSLP” value amounted to 2.4 nM; the “average IC50, mast cell cytokine production (IL-13, IL-5, GMCSF)” value lay within 0.04 to 0.06 nM.

The next test addresses T2, TSLPR-ECD (extracellular domain of TSLPR) (human, UniProt Q9HC73 23-231).
T2 construct: Obtained by cleavage of a TSLPR-Fc fusion protein expressed in HEK cells; also called analyte 2
T2 sequence: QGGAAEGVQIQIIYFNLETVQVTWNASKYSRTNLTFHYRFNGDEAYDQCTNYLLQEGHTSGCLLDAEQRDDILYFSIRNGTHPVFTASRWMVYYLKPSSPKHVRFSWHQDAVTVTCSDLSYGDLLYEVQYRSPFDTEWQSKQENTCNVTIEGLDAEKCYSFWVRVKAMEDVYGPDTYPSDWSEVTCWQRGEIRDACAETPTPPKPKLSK
Put plainly: SPR (Biacore 3000), antibody captured by anti-IgG, TSLPR-ECD as analyte, 25 °C, 1:1 Langmuir fit. How it is done: The binding properties of monoclonal anti-TSLPR antibodies and according to WO 2007/112146 were analyzed by surface plasmon resonance (SPR) technology using a Biacore 3000 instrument. The affinity was determined using an assay setup with capturing antibodies. These capturing antibodies (goat anti-human-IgG, goat anti-hamster-IgG) were immobilized on the surface of a CM5 biosensorchip using amine coupling chemistry. The capturing antibodies were injected in sodium acetate buffer, pH 5.0 at a concentration of 5 μg/ml aiming for a surface density of approx 1000 RU. Remaining reactive groups were inactivated by an injection of 1 M ethanolamine/HCl pH 8.5. Running buffer was HBS-P. The anti-TSLPR antibodies (analyte 1) were diluted in HBS-P to a concentration of 25 nM and injected at a flow rate of 5 μl/min for 3 minutes, resulting in a binding signal of 100-400RU dependent on the antibodies applied. The extracellular domain of TSLPR, TSLPR-ECD, obtained by cleavage of a TSLPR-Fc fusion protein expressed in HEK cells (analyte 2), was injected in concentrations ranging from 0-50 nM at a flow rate of 20 μl/min. The contact time (association phase) was 3 min for TSLPR followed by 5 minutes of dissociation. Regeneration solution 10 mM glycine HCl pH1.5 or 10 mM glycine HCl pH1.7 was injected twice at a flow rate of 10 μl/min for 1 min to remove any bound protein after each binding cycle. All interactions were performed at 25° C. (standard temperature). Signals were detected at a detection rate of 1 signal/second. The signals from a reference flow cell (FC1: same capturing antibody and addition of control antibody) and from blank buffer injections were subtracted and data were evaluated. All binding curves were fitted to a 1:1 Langmuir binding model. Association rate constant (ka), dissociation rate constant (kd) and the dissociation equilibrium constant (KD) were calculated accordingly.
In general terms: Surface plasmon resonance follows binding to a sensor surface in real time, without labels.
A word on the Kd: it is the constant that tells how readily two partners part at equilibrium. The low end stands for tighter binding, the high end for weaker binding. In turn, B2 displayed an equilibrium dissociation constant (Kd) of 0.25 nM.
The same measure, in the same setting: next, B3: 2.45 nM; B4: 0.6 nM; B1: 0.87 nM.
The same measure, in the same setting: the value for B5 was 0.5 nM.

In another test the target is T3, Cynomolgous TSLPR (on HEK293 cells) (Cynomolgous monkey).
T3 construct: also called Cyno-TSLPR-HEK293; HEK-Cyno-TSLPR
T3 chain: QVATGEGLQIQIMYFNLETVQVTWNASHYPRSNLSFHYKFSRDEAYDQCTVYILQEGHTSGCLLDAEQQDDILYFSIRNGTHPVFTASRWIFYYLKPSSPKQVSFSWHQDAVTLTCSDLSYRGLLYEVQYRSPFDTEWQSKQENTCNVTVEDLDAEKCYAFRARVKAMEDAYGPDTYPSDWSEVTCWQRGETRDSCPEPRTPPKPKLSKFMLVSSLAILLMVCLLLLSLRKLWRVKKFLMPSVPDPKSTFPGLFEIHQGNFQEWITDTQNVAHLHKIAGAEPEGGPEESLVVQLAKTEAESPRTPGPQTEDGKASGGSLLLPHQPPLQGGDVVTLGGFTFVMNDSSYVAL
The test can be described thus: FACS on HEK293 cells transiently transfected with Cynomolgous TSLPR. The procedure: (§1) BA/F3-TSLPR/IL7Rα or Cyno-TSLPR-HEK293 cells were starved from TSLP overnight, harvested by centrifugation, washed once in PBS and re-suspended in FACS buffer (PBS/5% FCS) at 10⁶/ml. 100 μl of cell suspension were incubated in a 96-well round-bottom plate well together with 100 μl of anti-TSLPR antibody solution for 45 minutes on ice. After three washes with FACS buffer, cells were re-suspended in a solution of PE-coupled anti-hamster-F(ab)2 (Dianova, Hamburg, Germany, #127-115-160) (1:200 in FACS buffer) and incubated for 30 minutes on ice. After three further washes cells were re-suspended in 200 μl of FACS buffer and measured on a FACSCanto™ flow cytometer (10,000 cells, flow rate 3).
A word on the EC50: it is the concentration at which the effect is half-maximal. Higher therefore signals a less potent agent. Consider B2, for which the concentration for a half-maximal effect (EC50) was determined as 0.0118 µg/mL.
The molecule B3 had an EC50 of 0.0086 µg/mL.
Turning to B4, the 50% effective concentration (EC50) worked out at 0.0103 µg/mL.
The same measure, in the same setting: next, B1: 0.0097 µg/mL; B5: 0.0108 µg/mL.

The target of a further test is T4, Recombinant human TSLPR-Fc (human, UniProt Q9HC73 23-231).
T4 construct: also called recombinant human soluble TSLPR-Fc fusion protein; not shown: Fc part
T4 sequence: T2 sequence
Put plainly: blocking ELISA: antibody on coated TSLPR-Fc, then TSLP + IL7Rα-Fc; TSLP binding detected. How it is done:
Recombinant human TSLPR-Fc was coated to 96-well Nunc Maxisorp™ plate wells by incubating 50 μl of a 0.2 μg/ml solution of TSLPR-Fc in PBS per well for 1 h at RT. Subsequently the wells were blocked with 1% Crotein™ C in PBS (blocking buffer) for 1 h at RT, followed by two washes with wash buffer (ice-cold PBS/0.05% TWEEN® 20). 50 μl of anti-TSLPR antibody solution (antibodies and according to WO 2007/112146) were then added to the wells and incubated for 2 h at 4° C., followed by four wash steps. After addition of 50 μl of a mixture of human recombinant TSLP (12.5 ng/ml) and human recombinant IL7Rα-Fc (1 μg/ml) in blocking buffer, the plate was shaken for 1 h at 4° C., followed by further four wash steps. TSLP binding was detected by incubation with 50 μl of biotinylated anti-TSLP antibody (0.08 μg/ml in blocking buffer), followed by four washes and incubation with 50 μl of streptavidin-HRP (0.25 μg/ml in blocking buffer) per well. After another four washing steps, color was developed by incubation with 50 μl of 3,3,5,5-Tetramethylbenzidine substrate, followed by addition of 50 μl of 1 N HCl. Absorbance was read out at 450 and 620 nm.
A general note: ELISA stands for enzyme-linked immunosorbent assay.
The term IC50 denotes the concentration needed to halve the response being measured. Turning to B2, the IC50 turned out to be 0.0088 µg/mL.
Same read-out and setting: next, B6: 0.0152 µg/mL.
As for B3, the IC50 was determined as 0.0122 µg/mL.
For B4, the IC50 is 0.0136 µg/mL.
In the case of B1, the IC50 came out at 0.0104 µg/mL.
On the same count and under the same terms, the value for B5 was 0.0134 µg/mL.

A further test addresses T1, human TSLPR (on cells). The test can be described thus: cell-based or functional assay. The source holds these as a separate data set.
For B2, the “IC50 DC assay (example 7), TARC secretion” value amounted to 0.129 µg/mL and the “IC50 proliferation (example 4)” value stood at 0.026 µg/mL.
The corresponding values for B3 are 0.086 µg/mL and 0.034 µg/mL.
Consider B4, for which the “IC50 DC assay (example 7), TARC secretion” value was 0.023 µg/mL and the “IC50 proliferation (example 4)” value was 0.025 µg/mL.
The corresponding values for B1 are 0.046 µg/mL and 0.037 µg/mL.
The corresponding values for B5 are 0.042 µg/mL and 0.026 µg/mL.

The next test addresses T1, human TSLPR (on cells). The test can be described thus: FACS on BA/F3 cells stably overexpressing human TSLPR and IL-7Rα. The procedure: as §1
In turn, B2 showed an EC50 of 0.0156 µg/mL.
On the same count and under the same terms, the value for B3 was 0.0118 µg/mL.
As for B4, a half-maximal effect (EC50) was put at 0.0149 µg/mL.
With B1, the EC50 is 0.0133 µg/mL.
On the same count and under the same terms, next, B5: 0.0157 µg/mL.

The next test addresses TSLPR-ECD (extracellular domain of TSLPR) (human) (UniProt Q9HC73). Put plainly: SPR (Biacore 3000), antibody captured by anti-IgG, TSLPR-ECD as analyte, 25 °C, 1:1 Langmuir fit.
As to B6, the dissociation constant (Kd) worked out at 2.97 nM.

Another test addresses T1, human TSLPR (on cells). The test can be described thus: cell-based or functional assay. The source holds these as a separate data set.
In the case of B6, the IC50 proliferation (example 4) turned out to be 0.084 µg/mL.
